How the values were obtained:
[1] = molecular target: rHuman CD44/Fc Chimera, CF (R&D Systems Cat#3660-CD) (human) (UniProt P16070); experiment: Multispot ECL (MSD), antigen spotted on plate, Fab […]; blank spot 162
[2] = molecular target: rHuman EGF R/Fc Chimera, CF (R&D Systems Cat#344-ER) (human) (UniProt P00533); experiment: as above
[3] = molecular target: rHuman ErbB2/Fc Chimera, CF (R&D Systems Cat#1129-ER) (human) (UniProt P04626); experiment: as above
[4] = molecular target: rHuman Erythropoietin R/Fc Chimera, CF (R&D Systems Cat#963-ER) (human) (UniProt P19235); experiment: as above
Sequence of rHuman Erythropoietin R/Fc Chimera, CF (R&D Systems Cat#963-ER) (human) (P19235 25-250, change not shown): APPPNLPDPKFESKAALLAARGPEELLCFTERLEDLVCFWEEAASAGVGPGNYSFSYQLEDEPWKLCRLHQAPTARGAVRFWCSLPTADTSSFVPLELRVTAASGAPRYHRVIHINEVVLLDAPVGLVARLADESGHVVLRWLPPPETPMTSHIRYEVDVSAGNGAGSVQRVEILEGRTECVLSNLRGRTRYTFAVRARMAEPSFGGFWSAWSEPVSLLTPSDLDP

[5] = molecular target: rHuman HGF R/c-MET/Fc Chimera, CF (R&D Systems Cat#358-MT/CF) (human) (UniProt P08581); experiment: as above
Sequence of rHuman HGF R/c-MET/Fc Chimera, CF (R&D Systems Cat#358-MT/CF) (human) (P08581 25-932, change not shown): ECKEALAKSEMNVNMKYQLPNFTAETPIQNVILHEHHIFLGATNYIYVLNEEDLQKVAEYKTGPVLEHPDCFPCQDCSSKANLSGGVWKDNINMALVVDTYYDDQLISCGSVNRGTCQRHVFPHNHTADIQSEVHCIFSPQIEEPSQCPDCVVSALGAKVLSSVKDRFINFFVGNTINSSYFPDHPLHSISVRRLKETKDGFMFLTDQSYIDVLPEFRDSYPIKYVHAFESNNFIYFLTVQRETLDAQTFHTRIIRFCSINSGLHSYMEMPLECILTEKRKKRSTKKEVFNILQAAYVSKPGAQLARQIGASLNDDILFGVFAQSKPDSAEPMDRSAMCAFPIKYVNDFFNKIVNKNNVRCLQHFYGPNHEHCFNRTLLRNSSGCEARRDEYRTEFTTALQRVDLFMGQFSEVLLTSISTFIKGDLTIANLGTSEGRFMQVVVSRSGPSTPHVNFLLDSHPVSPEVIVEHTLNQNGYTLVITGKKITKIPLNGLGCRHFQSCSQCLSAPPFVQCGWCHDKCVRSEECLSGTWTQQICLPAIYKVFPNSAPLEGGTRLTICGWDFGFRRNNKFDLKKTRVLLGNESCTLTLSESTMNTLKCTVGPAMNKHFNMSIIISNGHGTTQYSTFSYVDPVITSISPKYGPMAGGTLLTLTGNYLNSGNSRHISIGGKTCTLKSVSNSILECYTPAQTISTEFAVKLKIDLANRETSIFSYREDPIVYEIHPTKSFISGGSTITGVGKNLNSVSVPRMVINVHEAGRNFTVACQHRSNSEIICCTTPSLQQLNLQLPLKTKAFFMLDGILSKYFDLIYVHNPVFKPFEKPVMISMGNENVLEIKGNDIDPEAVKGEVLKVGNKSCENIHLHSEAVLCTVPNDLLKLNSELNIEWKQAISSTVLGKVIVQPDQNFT

[6] = molecular target: rHuman IGF-1 sR, (IGF-1 sR), CF (R&D Systems Cat#391-GR) (human) (UniProt P08069); experiment: as above
[7] = molecular target: rHuman Notch-1/Fc Chimera, CF (R&D Systems Cat#3647-TK) (human) (UniProt P46531); experiment: as above
[8] = molecular target: rHuman P-Cadherin/Fc Chimera, CF (R&D Systems Cat#861-PC) (human) (UniProt P22223); experiment: as above
[9] = molecular target: rHuman CD44/Fc Chimera, CF (R&D Systems Cat#3660-CD) (human) (UniProt P16070); experiment: Multispot ECL (MSD), antigen spotted on plate, Fab 170 nM; blank spot 262
[10] = molecular target: rHuman EGF R/Fc Chimera, CF (R&D Systems Cat#344-ER) (human) (UniProt P00533); experiment: as above
[11] = molecular target: rHuman ErbB2/Fc Chimera, CF (R&D Systems Cat#1129-ER) (human) (UniProt P04626); experiment: as above
[12] = molecular target: rHuman Erythropoietin R/Fc Chimera, CF (R&D Systems Cat#963-ER) (human) (UniProt P19235); experiment: as above
[13] = molecular target: rHuman HGF R/c-MET/Fc Chimera, CF (R&D Systems Cat#358-MT/CF) (human) (UniProt P08581); experiment: as above
[14] = molecular target: rHuman IGF-1 sR, (IGF-1 sR), CF (R&D Systems Cat#391-GR) (human) (UniProt P08069); experiment: as above
[15] = molecular target: rHuman Notch-1/Fc Chimera, CF (R&D Systems Cat#3647-TK) (human) (UniProt P46531); experiment: as above
[16] = molecular target: rHuman P-Cadherin/Fc Chimera, CF (R&D Systems Cat#861-PC) (human) (UniProt P22223); experiment: as above
[17] = molecular target: rHuman CD44/Fc Chimera, CF (R&D Systems Cat#3660-CD) (human) (UniProt P16070); experiment: Multispot ECL (MSD), antigen spotted on plate, Fab 340 nM; blank spot 554
[18] = molecular target: rHuman EGF R/Fc Chimera, CF (R&D Systems Cat#344-ER) (human) (UniProt P00533); experiment: as above
[19] = molecular target: rHuman ErbB2/Fc Chimera, CF (R&D Systems Cat#1129-ER) (human) (UniProt P04626); experiment: as above
[20] = molecular target: rHuman Erythropoietin R/Fc Chimera, CF (R&D Systems Cat#963-ER) (human) (UniProt P19235); experiment: as above
[21] = molecular target: rHuman HGF R/c-MET/Fc Chimera, CF (R&D Systems Cat#358-MT/CF) (human) (UniProt P08581); experiment: as above
[22] = molecular target: rHuman IGF-1 sR, (IGF-1 sR), CF (R&D Systems Cat#391-GR) (human) (UniProt P08069); experiment: as above
[23] = molecular target: rHuman Notch-1/Fc Chimera, CF (R&D Systems Cat#3647-TK) (human) (UniProt P46531); experiment: as above
[24] = molecular target: rHuman P-Cadherin/Fc Chimera, CF (R&D Systems Cat#861-PC) (human) (UniProt P22223); experiment: as above
[25] = molecular target: rHuman CD44/Fc Chimera, CF (R&D Systems Cat#3660-CD) (human) (UniProt P16070); experiment: Multispot ECL (MSD), antigen spotted on plate, Fab 85.0 nM; blank spot 292
[26] = molecular target: rHuman EGF R/Fc Chimera, CF (R&D Systems Cat#344-ER) (human) (UniProt P00533); experiment: as above
[27] = molecular target: rHuman ErbB2/Fc Chimera, CF (R&D Systems Cat#1129-ER) (human) (UniProt P04626); experiment: as above
[28] = molecular target: rHuman Erythropoietin R/Fc Chimera, CF (R&D Systems Cat#963-ER) (human) (UniProt P19235); experiment: as above
[29] = molecular target: rHuman HGF R/c-MET/Fc Chimera, CF (R&D Systems Cat#358-MT/CF) (human) (UniProt P08581); experiment: as above
[30] = molecular target: rHuman IGF-1 sR, (IGF-1 sR), CF (R&D Systems Cat#391-GR) (human) (UniProt P08069); experiment: as above
[31] = molecular target: rHuman Notch-1/Fc Chimera, CF (R&D Systems Cat#3647-TK) (human) (UniProt P46531); experiment: as above
[32] = molecular target: rHuman P-Cadherin/Fc Chimera, CF (R&D Systems Cat#861-PC) (human) (UniProt P22223); experiment: as above

B1: Fab VH4-34_IGHD7-27*01_IGHJ4*01 & V4-6_IGLJ4*01 (Fab, V domains shown)
VH: QVQLQQWGAGLLKPSETLSLTCAVYGGSFSGYYWSWIRQPPGKGLEWIGEINHSGSTNYNPSLKSRVTISVDTSKNQFSLKLSSVTAADTAVYYCARANWGDYFDYWGQGTLVTVSS
VL: RPVLTQPPSLSASPGATARLPCTLSSDLSVGGKNMFWYQQKPGSSPRLFLYHYSDSDKQLGPGVPSRVSGSKETSSNTAFLLISGLQPEDEADYYCQVYESSANFVFGGGTQLIIL
ECL signal [1]: 522
ECL signal [2]: 528
ECL signal [3]: 866
ECL signal [4]: 494
ECL signal [5]: 607
ECL signal [6]: 646
ECL signal [7]: 649
ECL signal [8]: 421
ECL signal [9]: 660
ECL signal [10]: 826
ECL signal [11]: 964
ECL signal [12]: 790
ECL signal [13]: 757
ECL signal [14]: 832
ECL signal [15]: 816
ECL signal [16]: 744
ECL signal [17]: 959
ECL signal [18]: 1210
ECL signal [19]: 1230
ECL signal [20]: 1260
ECL signal [21]: 1240
ECL signal [22]: 1040
ECL signal [23]: 1210
ECL signal [24]: 1160
ECL signal [25]: 693
ECL signal [26]: 1000
ECL signal [27]: 844
ECL signal [28]: 817
ECL signal [29]: 998
ECL signal [30]: 891
ECL signal [31]: 780
ECL signal [32]: 709
